In article PMC2642989, “Enhancement of the Seed-Target Recognition Step in RNA Silencing by a PIWI/MID Domain Protein”:

Experiments:
AfPiwi [1] = molecular target: T1, AfPiwi (UniProt O28951 1-427); test: ITC; target into AfPiwi-guide; 10 mM Mg2+; isolation 725 nM in text, 990 nM in Table 2; ITC: 50 mM Tris pH 7.5, 150 mM KCl, 5% glycerol, 10 mM MgCl2, 1 mM DTT, 20 C; guide 3.5-24 uM in cell with 3-4 fold excess AfPiwi, target in syringe; conditions: protein: recombinant
T1 sequence: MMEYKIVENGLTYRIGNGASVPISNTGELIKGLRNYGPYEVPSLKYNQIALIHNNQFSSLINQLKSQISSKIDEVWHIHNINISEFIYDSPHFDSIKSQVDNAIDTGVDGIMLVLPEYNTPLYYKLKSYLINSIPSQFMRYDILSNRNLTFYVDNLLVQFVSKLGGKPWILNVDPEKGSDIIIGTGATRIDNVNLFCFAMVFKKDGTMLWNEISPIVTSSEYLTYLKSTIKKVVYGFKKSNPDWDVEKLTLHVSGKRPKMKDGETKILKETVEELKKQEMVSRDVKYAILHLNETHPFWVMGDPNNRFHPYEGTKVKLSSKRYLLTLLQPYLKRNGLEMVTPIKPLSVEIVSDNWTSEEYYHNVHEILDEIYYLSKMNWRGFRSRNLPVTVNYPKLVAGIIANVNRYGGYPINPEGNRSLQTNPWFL

AfPiwi [2] = molecular target: T1, AfPiwi; test: ITC; target into AfPiwi-guide; 10 mM Mg2+; isolation 206 nM; ITC: 50 mM Tris pH 7.5, 150 mM KCl, 5% glycerol, 10 mM MgCl2, 1 mM DTT, 20 C; guide 3.5-24 uM in cell with 3-4 fold excess AfPiwi, target in syringe; conditions: protein: recombinant; T:G mismatch at guide position 8
AfPiwi [3] = molecular target: T1, AfPiwi; test: ITC; target into AfPiwi-guide; 10 mM Mg2+; isolation 1280 nM; ITC: 50 mM Tris pH 7.5, 150 mM KCl, 5% glycerol, 10 mM MgCl2, 1 mM DTT, 20 C; guide 3.5-24 uM in cell with 3-4 fold excess AfPiwi, target in syringe; conditions: protein: recombinant; one mismatch
AfPiwi [4] = molecular target: T1, AfPiwi; test: ITC; target into AfPiwi-guide; 10 mM Mg2+; isolation 3.6 nM; ITC: 50 mM Tris pH 7.5, 150 mM KCl, 5% glycerol, 10 mM MgCl2, 1 mM DTT, 20 C; guide 3.5-24 uM in cell with 3-4 fold excess AfPiwi, target in syringe; conditions: protein: recombinant; 11 bp, guide 3' overhang 1 nt
AfPiwi [5] = molecular target: T1, AfPiwi; test: ITC; target into AfPiwi-guide; 10 mM Mg2+; isolation 4600 nM; ITC: 50 mM Tris pH 7.5, 150 mM KCl, 5% glycerol, 10 mM MgCl2, 1 mM DTT, 20 C; guide 3.5-24 uM in cell with 3-4 fold excess AfPiwi, target in syringe; conditions: protein: recombinant
AfPiwi [6] = molecular target: T1, AfPiwi; test: ITC; target into AfPiwi-guide; 10 mM Mg2+; isolation 794 nM; ITC: 50 mM Tris pH 7.5, 150 mM KCl, 5% glycerol, 10 mM MgCl2, 1 mM DTT, 20 C; guide 3.5-24 uM in cell with 3-4 fold excess AfPiwi, target in syringe; conditions: protein: recombinant; A:G mismatch at guide position 4
AfPiwi [7] = molecular target: T1, AfPiwi; test: ITC; target into AfPiwi-guide; 10 mM Mg2+; isolation 926 nM; ITC: 50 mM Tris pH 7.5, 150 mM KCl, 5% glycerol, 10 mM MgCl2, 1 mM DTT, 20 C; guide 3.5-24 uM in cell with 3-4 fold excess AfPiwi, target in syringe; conditions: protein: recombinant; T:G mismatch at guide position 1
AfPiwi [8] = molecular target: T1, AfPiwi; test: ITC; target into AfPiwi-guide; 10 mM Mg2+; isolation 1.83 uM; ITC: 50 mM Tris pH 7.5, 150 mM KCl, 5% glycerol, 10 mM MgCl2, 1 mM DTT, 20 C; guide 3.5-24 uM in cell with 3-4 fold excess AfPiwi, target in syringe; conditions: protein: recombinant
AfPiwi [9] = molecular target: T1, AfPiwi; test: ITC; target into AfPiwi-guide; 10 mM Mg2+; isolation 1490 nM; ITC: 50 mM Tris pH 7.5, 150 mM KCl, 5% glycerol, 10 mM MgCl2, 1 mM DTT, 20 C; guide 3.5-24 uM in cell with 3-4 fold excess AfPiwi, target in syringe; conditions: protein: recombinant; T:G mismatch at guide position 10
AfPiwi [10] = molecular target: T1, AfPiwi; test: ITC; target into AfPiwi-guide; 10 mM Mg2+; isolation 7520 nM; ITC: 50 mM Tris pH 7.5, 150 mM KCl, 5% glycerol, 10 mM MgCl2, 1 mM DTT, 20 C; guide 3.5-24 uM in cell with 3-4 fold excess AfPiwi, target in syringe; conditions: protein: recombinant; one mismatch
AfPiwi [11] = molecular target: T1, AfPiwi; test: ITC; AfPiwi into preformed duplex; endothermic; ITC: 50 mM Tris pH 7.5, 150 mM KCl, 5% glycerol, 10 mM MgCl2, 1 mM DTT, 20 C; guide 3.5-24 uM in cell with 3-4 fold excess AfPiwi, target in syringe; conditions: protein: recombinant; blunt
AfPiwi [12] = molecular target: T1, AfPiwi; test: ITC; target into AfPiwi-guide; 10 mM Mg2+; isolation 14600 nM; ITC: 50 mM Tris pH 7.5, 150 mM KCl, 5% glycerol, 10 mM MgCl2, 1 mM DTT, 20 C; guide 3.5-24 uM in cell with 3-4 fold excess AfPiwi, target in syringe; conditions: protein: recombinant; one mismatch

B1: Fig 3A DNA guide / DNA target (seed) (dsDNA)
DNA 1: TGTAGGTT
DNA 2: AACCTACA
modifications: guide 5' phosphate
Kd (AfPiwi [1]): 29.2 ± 2 nM

B2: Fig 5F DNA T:G mismatch at position 8 (dsDNA)
DNA 1: TGTAGGTTGCAT
DNA 2: TGCGACCT
modifications: guide 5' phosphate
Kd (AfPiwi [2]): 672 ± 82 nM

B3: Fig 5D RNA mismatch (dsRNA)
RNA 1: UGUAGGUU
RNA 2: ACCUGC
modifications: guide 5' phosphate
Kd (AfPiwi [3]): 2030 ± 150 nM

B4: G12 guide / T11 target (dsDNA)
DNA 1: TGTAGGTTGCAT
DNA 2: TGCAACCTACA
modifications: guide (G12) 5' phosphate
Kd (AfPiwi [4]): 8.4 nM

B5: Fig 3B RNA guide / RNA target (seed) (dsRNA)
RNA 1: UUGUUUGU
RNA 2: ACAAACA
modifications: guide 5' phosphate
Kd (AfPiwi [5]): 82.2 ± 2.7 nM

B6: Fig 5A RNA A:G mismatch at position 4 (dsRNA)
RNA 1: UGUAGGUU
RNA 2: AACCGACA
modifications: guide 5' phosphate
Kd (AfPiwi [6]): 1160 ± 260 nM

B7: Fig 5H DNA T:G mismatch at position 1 (dsDNA)
DNA 1: TGTAGGTT
DNA 2: AACCTACG
modifications: guide 5' phosphate
Kd (AfPiwi [7]): 17 ± 1.1 nM

B8: Fig 3C DNA guide / RNA target (seed) (DNA:RNA)
DNA: TGTAGGTT
RNA: AACCUAC
modifications: guide 5' phosphate
Kd (AfPiwi [8]): 28 nM

B9: Fig 5G DNA T:G mismatch at position 10 (dsDNA)
DNA 1: TGTAGGTTGTAT
DNA 2: ATGCAACC
modifications: guide 5' phosphate
Kd (AfPiwi [9]): 2850 ± 350 nM

B10: Fig 5E DNA mismatch (dsDNA)
DNA 1: TGTAGGTT
DNA 2: AACCTGCA
modifications: guide 5' phosphate
Kd (AfPiwi [10]): 452 ± 27 nM

B11: Fig S3 preformed DNA duplex (dsDNA)
DNA 1: TTGAGTTT
DNA 2: AAACTCAA
modifications: 5' phosphate on strand 1
binding result (AfPiwi [11]): binds

B12: Fig 5B RNA mismatch (dsRNA)
RNA 1: UUGUUUGU
RNA 2: ACAAGCA
modifications: guide 5' phosphate
Kd (AfPiwi [12]): 152 ± 16 nM
